Biological target: T1, human TRADD death domain (199-312) (human, UniProt Q15628 199-312)
T1 sequence: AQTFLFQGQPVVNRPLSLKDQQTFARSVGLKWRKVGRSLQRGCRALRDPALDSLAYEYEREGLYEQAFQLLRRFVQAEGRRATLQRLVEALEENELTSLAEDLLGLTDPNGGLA
Test: NMR solution structure

B1: human p75 neurotrophin receptor death domain (330-427) (domain or fragment)
chain: KGDGGLYSSLPPAKREEVEKLLNGSAGDTWRHLAGELGYQPEHIDSFTHEACPVRALLASWATQDSATLDALLAALRRIQRADLVESLCSESTATSPV
B1: binds.
